These results are taken from patent US20220280543A1, “DDX17 AND NLRC4 TARGETING FOR INFLAMMATORY DISEASES” (University of Virginia Patent Foundation, priority 2019, published 2022).

Entries after “also recorded” stand apart in the source; their conditions may differ.

Series [1] concerns NLRC4 inflammasome. The series can be described thus: Flagellin-induced caspase-1 activation in wild type BMDM pre-treated with NRTIs, immunoblot. The note with it: pre-treated 1 hour, flagellin 3 μg/ml (FIG. 31). Format: cell-based, mouse. As to the method:
FIG. 27. NRTI block Flagellin induced NLRC4 inflammasome in BMDM. Wild type BMDM cells were pre-treated with exemplary NRTIs (D4T, 3TC) at 100 μM for 1 hour, and then stimulated with flagellin transfection (3 μg/ml). Supernatant and cell lysate were collected for Caspase-1 detection. […] The caspase-1 (p20) bands are indicated with black arrow.
FIG. 28. NRTI (3TC) blocks flagellin-induced NLRC4 inflammasome in a dose dependent manner. Wild type BMDM cell were pre-treated with indicated dose of NRTI (3TC) for 1 hour, and then stimulated with Flagellin transfection (3 μg/ml). Supernatants were collected for Caspase-1 detection. […] The caspase-1 (p20) bands are indicated with black arrow.
FIG. 31. Modified NRTIs (K8, K9) block flagellin-induced NLRC4 inflammasome in BMDM. Wild type BMDM cell were pre-treated with regular NRTI (D4T, 3TC), the modified NRTIs 3-Methyl-3TC (K9) or 2-Ethyl-AZT (K8), or NLRP3 inhibitors (MCC950, CY-09) for 1 hour, and then stimulated with flagellin transfection (3 μg/ml). Supernatants were collected for secreted caspase-1 detection. […] The caspase-1 (p20) bands are indicated with black arrow.
Nucleoside reverse transcriptase inhibitors (NRTIs) are HIV therapeutics that inhibit retrovirus replication. We have previously shown that NRTIs inhibit P2X7-mediated NLRP3 inflammasome activation by an endogenous retroelement Alu RNA (SEQ ID NO: 86). Activation of NLRP3 inflammasome by Alu RNA (SEQ ID NO: 86) causes the death of retinal pigment epithelium (RPE) in geographic atrophy, a severe form of AMD. […] Currently, multiple NLRP3 inflammasome inhibitors such as MCC950, CY09 are available however, there are no inhibitors of NLRC4. So, a need exists to develop inhibitors of NLRC4 inflammasome to study NLRC4 driven diseases. Here, we show for the first time that NRTIs block flagellin induced NLRC4 inflammasome. We pretreated flagellin transfected BMDMs with DT4 and 3TC to examine caspase-1 activation.
NLRC4 oligomerization is another hallmark of inflammasome activation where high-molecular mass NLRC4 protein complexes are assembled. […]

The subject of series [2] is caspase-1. The series can be described thus: Alu RNA induced caspase-1 activation in THP1 cells after siRNA knockdown. Type of series: cell-based, human. The note with it: siRNA knockdown (FIGS. 11A, 11B). The source says:
FIGS. 11A and 11B. Ddx17 involved in Alu RNA (SEQ ID NO: 86) induced inflammasome independent of its microprocessor function. DDX17 is a component of microprocessor complexes with DDX5 and Drosha. To test whether the microprocessor function of DDX17 is required for Alu RNA (SEQ ID NO: 86) induced inflammasome, we measured caspase-1 activation in THP cells with DDX5 or Drosha knockdown (siRNA for DDX5: GGAAAUUACAGUUAGAGGU; SEQ ID NO: 89); siRNA for Drosha: GACAAGUUGAUAGGAUAUA; SEQ ID NO: 90). FIG. 11A. siRNA mediated Ddx17 knockdown, but not Ddx5 in THP1 cells, blocked Alu RNA (SEQ ID NO: 86) induced caspase-1 activation. […] The caspase-1 (p20) bands were indicated with black arrows.
We next examined whether DDX5 or DDX17 was the sensor for Alu RNA (SEQ ID NO: 86) induced NLRC4 inflammasome activation. Due to the high degree of similarity in the sequences of DDX5 and DDX17, we designed 3 siRNAs targeting DDX5 alone, DDX17 alone, or both DDX5 and DDX17, and confirmed their target efficiency in THP1 cells (FIG. 11A). […] Therefore, we tested whether Drosha is also involved in SINE RNA-DDX17-NLRC4 axis. […] These observations implicate that DDX17 mediated SINE RNA induced NLRC4 inflammasome is independent of microprocessor function.

Series [3] deals with Ddx17 (bait of the Ddx complex, Table 3) (UniProt Q92841). The series can be described thus: IP tandem mass spectrometry of the Ddx17 complex, mock-treated.
Series [4] has the same target. The series can be described thus: IP tandem mass spectrometry of the Ddx17 complex, Alu RNA-treated.
In series [5] the test system is NLRC4 phosphorylation (site S533). The series can be described thus: SINE RNA induced NLRC4 phosphorylation (S533) in BMDM, Western blot. The note with it: SINE RNAs each at 100 pmol, polyI:C 10 μg/ml (FIG. 1). Type of series: cell-based, mouse. As to the method: FIG. 1. SINE RNA induced NLRC4 phosphorylation (site S533) in mice macrophage (BMDM). Mouse bone marrow derived macrophage (BMDM) were treated with SINE RNAs (Alu (SEQ ID NO: 86), B1 (SEQ ID NO: 87), and B2 (SEQ ID NO: 88), each at 100 pmol), and polyI:C (10 μg/ml). Phosphorylated Nlrc4 (p-Nlrc4) and total Nlrc4 (t-Nlrc4) were detected by Western blot. Actin is provided as a loading control. The p-NLRC4 bands were indicated by black arrow.
Previous studies have shown that NLRC4 inflammasome activation in response to Salmonella exposure requires two steps for its activation, phosphorylation on Ser533 residue of NLRC4 and NAIP mediated oligomerization of NLRC4. […] Moreover, treatment with SINE RNAs induced caspase-1 p20 cleavage, indicative of inflammasome activation (FIG. 2). For the subsequent experiments in this study, we used Alu RNA (SEQ ID NO: 86) as the stimulus to activate the NLRC4 inflammasome. To date, two kinases are reported to phosphorylate NLRC4 at S533: protein kinase C delta (PKCδ) and leucine rich repeat-containing kinase-2 (LRRK2). To explore the roles of these kinases in Alu RNA (SEQ ID NO: 86) induced NLRC4 phosphorylation, we pretreated BMDMs with pharmacological inhibitors of LRRK2 (GSK2578215A, GSK) and PKCδ (Rottlerin, Rot) respectively.
(A western blot detects proteins with antibodies after separation by electrophoresis.)

The subject of series [6] is ASC specks. The series can be described thus: SINE RNA induced ASC specks in BMDM, immunofluorescence. Format: cell-based, mouse. The note with it: BMDMs, transfection vs Mock (FIG. 3A). As to the method: FIGS. 3A and 3B. SINE RNA-induced ASC oligomerization is dependent on NLRC4 (BMDM). FIG. 3A. Immunofluorescence images of endogenous ASC specks and NLRC4 puncta in BMDMs after transfected with Alu (SEQ ID NO: 86) or B2 (SEQ ID NO: 88) RNA or transfection reagents only (Mock). […] Moreover, NLRC4 proteins assembled as puncta, and co-resided with ASC specks. FIG. 3B. ASC oligomerizations were evaluated in wild-type and Nlrc4^−/− BMDMs through cross-linking and western blot. […] The bands of oligomeric ASC protein were indicated by black arrow.
The activated NLRC4 inflammasome undergoes oligomerization by assembling into high-molecular mass multiprotein complexes. We first investigated in situ assembling of NLRC4 and apoptosis speck (ASC) like protein complexes in response to SINE RNA treatment of BMDMs. Immunofluorescence studies show increased NLRC4 and ASC specks in SINE RNA-treated BMDMs compared to mock-treated cells (FIG. 3A). To assess NLRC4 inflammasome assembly, WT and NLRC4 KO BMDM cells were treated with Alu RNA (SEQ ID NO: 86). Disuccinimidyl suberate (DSS) cross-linked lysates were resolved using denaturing SDS-PAGE to detect ASC oligomers and cell lysates were resolved using native polyacrylamide gel electrophoresis (NATIVE-PAGE) to detect NLRC4 oligomerization. […] NLRC4/ASC oligomerization is essential for the cleavage of pro-caspase-1 into its active form p20 and IL-1β release.

Ddx17 (bait of the Ddx complex, Table 3), sequence (Q92841 whole entry, one chain of several): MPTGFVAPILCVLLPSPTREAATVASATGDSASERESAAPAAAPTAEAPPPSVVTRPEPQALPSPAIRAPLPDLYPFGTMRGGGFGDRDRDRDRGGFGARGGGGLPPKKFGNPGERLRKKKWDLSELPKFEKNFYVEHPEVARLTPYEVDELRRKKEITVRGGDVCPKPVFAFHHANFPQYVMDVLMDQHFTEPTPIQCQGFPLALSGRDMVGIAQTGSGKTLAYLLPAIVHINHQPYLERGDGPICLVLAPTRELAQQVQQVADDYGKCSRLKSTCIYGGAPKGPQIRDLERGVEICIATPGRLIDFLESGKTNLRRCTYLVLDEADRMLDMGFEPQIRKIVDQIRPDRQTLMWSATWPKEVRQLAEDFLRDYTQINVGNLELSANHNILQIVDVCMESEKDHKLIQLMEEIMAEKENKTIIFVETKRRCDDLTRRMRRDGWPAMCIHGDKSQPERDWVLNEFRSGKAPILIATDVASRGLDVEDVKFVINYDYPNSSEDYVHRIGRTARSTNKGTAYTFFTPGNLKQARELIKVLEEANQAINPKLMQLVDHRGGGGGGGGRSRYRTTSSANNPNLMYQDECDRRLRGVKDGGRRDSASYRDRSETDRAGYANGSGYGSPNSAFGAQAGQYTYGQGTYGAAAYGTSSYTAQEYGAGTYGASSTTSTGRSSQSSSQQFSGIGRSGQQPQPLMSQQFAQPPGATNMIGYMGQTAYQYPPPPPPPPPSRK

On to 2-Ethyl-AZT [K8], for which, in series [1], the “flagellin induced caspase-1 activation, modified NRTIs” value is on record as “blocked; also recorded: inhibited”.

Consider 3-Methyl-3TC [K9], for which the “flagellin induced caspase-1 activation, modified NRTIs” value in series [1] is reported as “blocked; also recorded: inhibited”.

Take “DDX5 siRNA: siRNA for DDX5: GGAAAUUACAGUUAGAGGU; SEQ ID NO: 89 (chemistry not fully specified)”: in series [2], the “caspase-1 cleavage in Alu RNA treated THP1 cells” value is “did not do so”.

“Ddx5 (Table 3) (from UniProt P17844 1-614)” came in with a Peptides in series [3] of 10 peptides.

In turn, “Ddx5 (Table 3) (from UniProt P17844 1-614) (enzyme)” had a Coverage (%) in series [3] of 17%. Besides, in series [4], the Coverage (%) worked out at 25% and the Peptides came out at 15 peptides.

In series [3], “Nlrp1 (Table 3) (from UniProt Q9C000 1-1473) (receptor)” returned a Coverage (%) of 0% and a Peptides of 0 peptides. Further, in series [4], the Coverage (%) worked out at 6.6% and the Peptides was 2 peptides.

Consider “Nlrp3 (Table 3) (from UniProt Q96P20 1-1036) (receptor)”, for which, in series [3], the Coverage (%) worked out at 0% and the Peptides was determined as 0 peptides. In addition, in series [4], the Coverage (%) was determined as 3.7% and the Peptides was 3 peptides.

In series [3], “Nlrp8 (Table 3) (from UniProt Q86W28 1-1048) (receptor)” showed a Coverage (%) of 0% and a Peptides of 0 peptides. For the same molecule, in series [4], the Coverage (%) was determined as 2.9% and the Peptides amounted to 2 peptides.

For poly(I:C), the “NLRC4 phosphorylation on S533 in BMDMs” value in series [5] is recorded as “did not induce”.

In the case of “siDrosha: siRNA for Drosha: GACAAGUUGAUAGGAUAUA; SEQ ID NO: 90 (listed as RNA, chemistry not given here)”, the “caspase-1 cleavage in Alu RNA treated THP1 cells” value in series [2] is on record as “did not”.

B1: B2: mouse SINE B2 RNA, SEQ ID NO: 88 (nucleic acid)
chain: GGGCUGGAGAGAUGGCUCAGUGGUUAAGAGCACCUGACUGCUCUUCCAGAGGUCCUGAGUUCAAUUCCCAGCAACCACAUGGUGGCUCACAACCAUCUGUAAUGAGAUCUGAUGCCCUCUUCUGGUGUGUCUGAAGACAGCUACAGUGUACUUACAUAUAAUAAAUAAAUAAAUAAAUAAAUCUUAAAAAAAAAAAAAAGAAAGAAAAA
modifications: Artificially synthesized B2 RNA
Take B1: the “formation of ASC specks” value in series [6] is listed as “induced the formation of ASC specks”. Also, the “NLRC4 phosphorylation on S533 in BMDMs” value in series [5] is given as “induced”.
